Assay results from the supplement of paper PMC7125110.
± gives the standard error. Fewer inactive variants are shown than the library holds.

B1: glmS ribozyme (parent)
chain: AUAAAAGCGCCAGAACUACAGAAAUGUAGUUGACGAGGAGGAGGUUUAUCGAAUUUUCGGCGGAUGCCUCCAAA

Tests used:
Details in all cases: with glucosamine-6-phosphate
glucosamine-6-phosphate [1] = variants of: B1; test: self-cleavage kobs at 40 uM GlcN6P; higher = faster cleavage; RNA array
Outline: (§1)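 kcat and KM were obtained from weighted Michaelis–Menten fits across concentrations of kobs values. Those came from one- or two-exponential decay fits to per-tile medians normalised to baseline and to non-cleaving reference variants. The variants were barcoded ribozymes transcribed in situ by E. coli RNA polymerase on sequenced MiSeq chips and tracked through a hybridised Cy3 probe at 37 °C, with 40 μM to 10 mM glucosamine-6-phosphate in HEPES/KCl/Mg(OAc)2 buffer flowed in.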

glucosamine-6-phosphate [2] = variants of: B1; test: self-cleavage kobs at 2500 uM GlcN6P; higher = faster cleavage; RNA array
Outline: as §1

glucosamine-6-phosphate [3] = variants of: B1; test: self-cleavage kobs at 160 uM GlcN6P; higher = faster cleavage; RNA array
Outline: as §1

glucosamine-6-phosphate [4] = variants of: B1; test: self-cleavage kobs at 10000 uM GlcN6P; higher = faster cleavage; RNA array
Outline: as §1

glucosamine-6-phosphate [5] = variants of: B1; test: self-cleavage kobs at 640 uM GlcN6P; higher = faster cleavage; RNA array
Outline: as §1

| Variant | self-cleavage kobs at 40 uM GlcN6P (glucosamine-6-phosphate [1]) [s⁻¹] | self-cleavage kobs at 2500 uM GlcN6P (glucosamine-6-phosphate [2]) [s⁻¹] | self-cleavage kobs at 160 uM GlcN6P (glucosamine-6-phosphate [3]) [s⁻¹] | self-cleavage kobs at 10000 uM GlcN6P (glucosamine-6-phosphate [4]) [s⁻¹] | self-cleavage kobs at 640 uM GlcN6P (glucosamine-6-phosphate [5]) [s⁻¹] |
| --- | --- | --- | --- | --- | --- |
| AUAAAAGCGGCAGAACUACAGAAAUGUAGUUGACUAGGUGGAGGUUUAUCGAAUUUUCGGCGGAUGCCUCCAAA [C10G G35U A39U] | < 1e-05 | – | – | – | – |
| AUAAAAGCGGCAGAAGUACAGAAAUGUAGUUGACGAGGAUGAGGUUUAUCGAAUUUUCGGCGGAUGCCUCCAAA [C10G C16G G40U] | < 1e-05 | < 1e-05 | – | – | – |
| AUAAAAGCGACAGAACUACAGAAAUGUAGUUGACGAGGAGGAGGUUUAUCGAAUUUUCGGCGGAUUCCUCCAAA [C10A G66U] | < 1e-05 | – | < 1e-05 | – | – |
| AUAAAAGCGGCAGAACUACAGAAAUGUAGUUAACGAGGAGGAGGUUUAUCGAAUUUUCGGCGGAUGCCUCCAAA [C10G G32A] | < 1e-05 | – | – | < 1e-05 | – |
| AUAAAAGCGGCAGAACUACAGAAAUGUAGUUGACGAAGAGGAGGUUUAUCGAAUUUUCGGCGGAUGCCUCCAAA [C10G G37A] | < 1e-05 | – | < 1e-05 | < 1e-05 | < 1e-05 |
| AUAAAAGCGGCAGAACUACAGAAAUGUAGUUGACAAGGAGGAGGUUUAUCGAAUUUUCGGCGGAUGCCUCCAAA [C10G G35A] | < 1e-05 | – | < 1e-05 | – | < 1e-05 |
| AUAAAAGCGACAGAACUACAGAAAUGUAGUUGACGAGGAGGAGGGUUAUCGAGUUUUCGGCGGAUGCCUCCAAA [C10A U45G A53G] | < 1e-05 | – | – | – | – |
| AUAAAAGCGGCAGAAGUACAGAAAUGUAGUUGAUGAGGAGGACGUUUAUCGCAUCUUCGGCGGAUGCCUCCAAA [C10G C16G C34U G43C A52C U55C] | < 1e-05 | – | – | < 1e-05 | – |
| AUAAAAGCGGCAGAACUACAGAAAUGUAGUUGUCGAGGAGGAUGUUUAUCGAAUUUUCGGCGCAUGCCUCGAAA [C10G A33U G43U G63C C71G] | < 1e-05 | – | – | – | – |
| AUAAAAGCGGCAGAACUACAGAAAUGUAGUUGACGAGGAGGCGGUUAAUCGAAUUUUCUGCGGAUGCCUCCAAA [C10G A42C U47A G59U] | < 1e-05 | – | – | – | – |
| AUAAAAGCGGCAGAACUACAGAAAUGUAGUUGACGAGGAGGAGGUUUAUCGGAUUUUCGGCGGAUGCCUCCAAA [C10G A52G] | < 1e-05 | < 1e-05 | – | < 1e-05 | – |
| AUAAAAGCGGCAGAACUACAGAAAUGUAGUUGACGAUGAGGCGGUUUAUCGAAUUUUCGGCGGAUGCCUCCAAA [C10G G37U A42C] | < 1e-05 | – | – | – | – |
| AUAAAAGCGGCAGAACUACAGAAAUGUAGUUGGCGAGGAGGAGGUUUAUCGUAUUUUUGGCGGUUGCCUCCAAA [C10G A33G A52U C58U A64U] | < 1e-05 | – | – | – | – |
| AUAAAAGCGGCAGAACUACAGAAAUGUAGUUGACGAGGAGGGGGUUUAUCGAAUUUUCGGCGGAUGCCUCCAAA [C10G A42G] | < 1e-05 | – | < 1e-05 | – | < 1e-05 |
| AUAAAAGCGGCAGAACUACAGAAAUGUAGUUGACGAGGAGGCGGUUUAUCGAAUUUUCGGCGGAUGCCUCCAAA [C10G A42C] | < 1e-05 | – | – | – | – |
| AUAAAAGCGGCAGAACUACAGAAAUGUAGUUGACGCGGAGGACGUUUAUCGAAUUUUCGGCGGAUGCCUCCAAA [C10G A36C G43C] | < 1e-05 | – | – | < 1e-05 | < 1e-05 |

| Variant | self-cleavage kobs at 40 uM GlcN6P (glucosamine-6-phosphate [1]) [s⁻¹] | self-cleavage kobs at 2500 uM GlcN6P (glucosamine-6-phosphate [2]) [s⁻¹] | self-cleavage kobs at 160 uM GlcN6P (glucosamine-6-phosphate [3]) [s⁻¹] | self-cleavage kobs at 10000 uM GlcN6P (glucosamine-6-phosphate [4]) [s⁻¹] | self-cleavage kobs at 640 uM GlcN6P (glucosamine-6-phosphate [5]) [s⁻¹] |
| --- | --- | --- | --- | --- | --- |
| AUAAAAGCGGCAGAACUACAGAAAUGUAGUUGACGACGAGGAGGUUAAUCGAAUUUACGGCGGAUCCCUGCAAA [C10G G37C U47A U57A G66C C70G] | < 1e-05 | – | – | < 1e-05 | – |
| AUAAAAGCGACAGAACUACAGAAAUGUAGUUGACGAGGAGGAGGUUUAUCGAAUUUUCGGCUGAUGCCUCCAAA [C10A G62U] | < 1e-05 | – | < 1e-05 | < 1e-05 | – |
| AUAAAAGCGGCAGCACUACAGAAAUGUAGUUGACGAGGAGGAGGUUUAUCGAAUUUUCGGCGGAUGCCUCCAAA [C10G A14C] | < 1e-05 | – | – | < 1e-05 | – |
| AUAAAAGCGGCAGAACUACAGAAAUGUAGUUGACGAGGAGGAGGUUUAUCGUAUUUUCCGCGGAUGCCUCCAAA [C10G A52U G59C] | < 1e-05 | < 1e-05 | < 1e-05 | – | < 1e-05 |
| AUAAAAGCGACAGAACUACAGAAAUGUAGGUGACGAGGUGGAGGUUUAUCGAAUUUUCGGCGGAUGACUCCAAA [C10A U30G A39U C67A] | < 1e-05 | – | – | – | – |
| AUAAAAGCGGCAGAACUACAGAAAUGUAGUUGACGAGGAGGAGGUUUAUGGAAUUUUCGGCGAAUGCCUCUAAA [C10G C50G G63A C71U] | 6.86e-05 ± 1.9e-05 | – | – | 5.34e-05 ± 1.7e-05 | – |
| AUAAAAGCGGCAGAACUACAGAAAUGUAGUUGAAGAGGAGGAGGUUUCCCGAAUUUUCGGCGGAUGCCUCCAAA [C10G C34A A48C U49C] | < 1e-05 | – | – | – | – |
| AUAAAAGCGACAGAACUACAGAAAUGUAGUUGACGAGGAGGAGGUUGAUCGAAUUUUCGGCGAAUGCCUCCAAA [C10A U47G G63A] | < 1e-05 | – | – | < 1e-05 | – |
| AUAAAAGCGGCAGAACUACAGAAAUGUAGUUGACGAGCAGGAGGUUUAUCGAAUUUUCGGCGGAUGCCGCCAAA [C10G G38C U69G] | < 1e-05 | – | – | – | < 1e-05 |
| AUAAAAGCGGCAGAACUACAGAAAUGUAGUUGACGAGGAGGAGGUUUAUGGAAUUUUCGGCGGAUGCCUCCAAA [C10G C50G] | 5.37e-05 ± 1.8e-05 | 9.17e-05 ± 2.1e-05 | 0.000187 ± 3.5e-05 | 4.6e-05 ± 1.1e-05 | 0.00026 ± 4.4e-05 |
| AUAAAAGCGACAGAACUACAGAAAUGUAGCUGACGAGGAGGAGGUUUAUCGAAUUUUCGGCGGAUGCCUCCAAA [C10A U30C] | < 1e-05 | < 1e-05 | < 1e-05 | < 1e-05 | < 1e-05 |
| AUAAAAGCGGCAGAACUACAGAAAUGUAGUUGACGAGGAGGAGGUUUAUCGACUUUUCGGCGGGUGCCUCCAAA [C10G A53C A64G] | < 1e-05 | < 1e-05 | < 1e-05 | < 1e-05 | < 1e-05 |
| AUAAAAGCGGCAGAACUACAGAAAUGUAGUUGACGAGGAGGAGGUUUUUCGAAUUUUCGGCGGAUGCCUCCAAA [C10G A48U] | < 1e-05 | < 1e-05 | < 1e-05 | < 1e-05 | < 1e-05 |
| AUAAAAGCGGCAGAACUACAGAAAUGUAGUUGACGAGUAGGAGGUUUAUCGAAUUUUCGGCGGAGGCCUCCAAA [C10G G38U U65G] | < 1e-05 | – | – | < 1e-05 | – |
| AUAAAAGCGGCAGAAGUACAGAAAUGUAGUUGACCAGGCGGAGGUUUAUCGAAUUUUCGGCGGAUGCCUCCAAA [C10G C16G G35C A39C] | < 1e-05 | – | – | < 1e-05 | – |
| AUAAAAGCGGCAGAACUACAGAAAUGUAGUUCACGAGGAGGAGGUUUAUCGAAUUUACGGCGGAUGCCUCCAAA [C10G G32C U57A] | < 1e-05 | – | – | – | – |
